Data: paper PMC10156912, “Mechanism of assembly, activation and lysine selection by the SIN3B histone deacetylase complex” (Nature Communications, 2023)

B2: SIN3B isoform 2 (natural protein, human, UniProt O75182-2 1-1130, looked up)
chain: MAHAGGGSGGSGAGGPAGRGLSGARWGRSGSAGHEKLPVHVEDALTYLDQVKIRFGSDPATYNGFLEIMKEFKSQSIDTPGVIRRVSQLFHEHPDLIVGFNAFLPLGYRIDIPKNGKLNIQSPLTSQENSHNHGDGAEDFKQQVPYKEDKPQVPLESDSVEFNNAISYVNKIKTRFLDHPEIYRSFLEILHTYQKEQLNTRGRPFRGMSEEEVFTEVANLFRGQEDLLSEFGQFLPEAKRSLFTGNGPCEMHSVQKNEHDKTPEHSRKRSRPSLLRPVSAPAKKKMKLRGTKDLSIAAVGKYGTLQEFSFFDKVRRVLKSQEVYENFLRCIALFNQELVSGSELLQLVSPFLGKFPELFAQFKSFLGVKELSFAPPMSDRSGDGISREIDYASCKRIGSSYRALPKTYQQPKCSGRTAICKEVLNDTWVSFPSWSEDSTFVSSKKTPYEEQLHRCEDERFELDVVLETNLATIRVLESVQKKLSRMAPEDQEKFRLDDSLGGTSEVIQRRAIYRIYGDKAPEIIESLKKNPVTAVPVVLKRLKAKEEEWREAQQGFNKIWREQYEKAYLKSLDHQAVNFKQNDTKALRSKSLLNEIESVYDEHQEQHSEGRSAPSSEPHLIFVYEDRQILEDAAALISYYVKRQPAIQKEDQGTIHQLLHQFVPSLFFSQQLDLGASEESADEDRDSPQGQTTDPSERKKPAPGPHSSPPEEKGAFGDAPATEQPPLPPPAPHKPLDDVYSLFFANNNWYFFLRLHQTLCSRLLKIYRQAQKQLLEYRTEKEREKLLCEGRREKGSDPAMELRLKQPSEVELEEYYPAFLDMVRSLLEGSIDPTQYEDTLREMFTIHAYVGFTMDKLVQNIARQLHHLVSDDVCLKVVELYLNEKKRGAAGGNLSSRCVRAARETSYQWKAERCMADENCFKVMFLQRKGQVIMTIELLDTEEAQTEDPVEVQHLARYVEQYVGTEGASSSPTEGFLLKPVFLQRNLKKFRRRWQSEQARALRGEARSSWKRLVGVESACDVDCRFKLSTHKMVFIVNSEDYMYRRGTLCRAKQVQPLVLLRHHQHFEEWHSRWLEDNVTVEAASLVQDWLMGEEDEDMVPCKTLCETVHVHGLPVTRYRVQYSRRPASP
notes: SIN3B isoform 2, human, UniProt O75182-2; codon-optimised cDNA; numbers count on: isoform 2 (O75182-2); Tag removed with 3C protease; RbBP7 was co-expressed to keep SIN3B soluble; also called SIN3 scaffold subunit; corepressor SIN3B; source: High Five insect cells, co-infected with baculoviruses of each subunit; co-purified (Strep-Tactin, GSTrap, Superose 6 SEC); not shown: StrepII, C-terminal, …

Assays:
Conditions in all cases: both partners purified
[1] = target: B2; assay: cross-linking; XL-MS: freshly purified SIN3B complex at 1.7 μM with DSSO, on ice for 10 min, quenched with Tris pH 8, trypsin digest, LC-MS
[2] = target: T1, HDAC2 (human, UniProt Q92769 1-488); assay: cryo-EM structure; apo SIN3B complex; SIN3B^FL sample (full-length PHF12, 3.4 Å), SIN3B complex sample (PHF12 1-502, 3.7 Å) and SIN3B^core map (2.8 Å); subunits co-expressed with RbBP7 and co-purified, GraFix (glutaraldehyde) treated
T1 construct: HDAC2, human; codon-optimised cDNA; No tag is named for HDAC2; also called histone deacetylase 2; catalytic HDAC module; source: High Five insect cells, co-infected with baculoviruses of each subunit; co-purified (Strep-Tactin, GSTrap, Superose 6 SEC)

[3] = target: B2; assay: as above
[4] = target: T2, MORF4L1 (mortality factor 4-like 1) (human, UniProt Q9UBU8 1-362); assay: as above
T2 construct: MORF4L1, human; codon-optimised cDNA; Tag removed with 3C protease; also called MRG and chromo domain-containing protein; source: High Five insect cells, co-infected with baculoviruses of each subunit; co-purified (Strep-Tactin, GSTrap, Superose 6 SEC); not shown: GST, N-terminal, cleaved
T2 sequence (Q9UBU8 whole entry, the tested form may be a part): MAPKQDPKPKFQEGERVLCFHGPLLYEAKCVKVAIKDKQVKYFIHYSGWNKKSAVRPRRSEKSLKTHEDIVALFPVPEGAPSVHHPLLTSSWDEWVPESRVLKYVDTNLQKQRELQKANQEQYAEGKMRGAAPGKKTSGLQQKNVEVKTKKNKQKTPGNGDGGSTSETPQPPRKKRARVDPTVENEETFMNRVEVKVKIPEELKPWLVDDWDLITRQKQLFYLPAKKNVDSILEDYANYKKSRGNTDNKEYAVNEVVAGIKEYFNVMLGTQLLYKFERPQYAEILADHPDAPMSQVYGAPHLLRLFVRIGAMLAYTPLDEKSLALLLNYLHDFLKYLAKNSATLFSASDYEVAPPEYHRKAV

T1 sequence (Q92769 whole entry): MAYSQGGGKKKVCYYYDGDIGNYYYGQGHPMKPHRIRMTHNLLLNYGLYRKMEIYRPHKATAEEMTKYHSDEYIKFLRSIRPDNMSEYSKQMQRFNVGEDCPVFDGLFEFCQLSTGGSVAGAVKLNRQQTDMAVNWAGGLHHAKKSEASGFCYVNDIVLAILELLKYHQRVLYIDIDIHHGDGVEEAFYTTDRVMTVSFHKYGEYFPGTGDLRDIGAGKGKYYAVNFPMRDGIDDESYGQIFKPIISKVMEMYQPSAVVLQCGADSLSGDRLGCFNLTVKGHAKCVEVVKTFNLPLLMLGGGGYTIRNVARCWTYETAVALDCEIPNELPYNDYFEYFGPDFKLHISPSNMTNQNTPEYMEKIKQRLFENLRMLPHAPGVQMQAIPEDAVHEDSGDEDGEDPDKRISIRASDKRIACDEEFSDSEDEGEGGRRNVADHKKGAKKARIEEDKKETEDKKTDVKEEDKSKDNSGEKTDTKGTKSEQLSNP

B1: PHF12^ΔC-terminus (residues 1-502) (domain or fragment, human, UniProt Q96QT6 1-502, looked up)
chain: MWEKMETKTIVYDLDTSGGLMEQIQALLAPPKTDEAEKRSRKPEKEPRRSGRATNHDSCDSCKEGGDLLCCDHCPAAFHLQCCNPPLSEEMLPPGEWMCHRCTVRRKKREQKKELGHVNGLVDKSGKRTTSPSSDTDLLDRSASKTELKAIAHARILERRASRPGTPTSSASTETPTSEQNDVDEDIIDVDEEPVAAEPDYVQPQLRRPFELLIAAAMERNPTQFQLPNELTCTTALPGSSKRRRKEETTGKNVKKTQHELDHNGLVPLPVKVCFTCNRSCRVAPLIQCDYCPLLFHMDCLEPPLTAMPLGRWMCPNHIEHVVLNQKNMTLSNRCQVFDRFQDTVSQHVVKVDFLNRIHKKHPPNRRVLQSVKRRSLKVPDAIKSQYQFPPPLIAPAAIRDGELICNGIPEESQMHLLNSEHLATQAEQQEWLCSVVALQCSILKHLSAKQMPSHWDSEQTEKADIKPVIVTDSSVTTSLQTADKTPTPSHYPLSCPSGIST
notes: PHF12, human, residues 1-502; lacks the poorly conserved and unstructured C-terminus; subunit of the SIN3B complex sample; also called PHF12^∆C-terminus; PHF12 residues 1-502; source: High Five insect cells, co-infected with baculoviruses of each subunit; co-purified (Strep-Tactin, GSTrap, Superose 6 SEC)
binding result [1]: binds

B2
stoichiometry N [2]: 1

B3: PHF12 (full-length) (natural protein, human, UniProt Q96QT6 1-1004, looked up)
chain: MWEKMETKTIVYDLDTSGGLMEQIQALLAPPKTDEAEKRSRKPEKEPRRSGRATNHDSCDSCKEGGDLLCCDHCPAAFHLQCCNPPLSEEMLPPGEWMCHRCTVRRKKREQKKELGHVNGLVDKSGKRTTSPSSDTDLLDRSASKTELKAIAHARILERRASRPGTPTSSASTETPTSEQNDVDEDIIDVDEEPVAAEPDYVQPQLRRPFELLIAAAMERNPTQFQLPNELTCTTALPGSSKRRRKEETTGKNVKKTQHELDHNGLVPLPVKVCFTCNRSCRVAPLIQCDYCPLLFHMDCLEPPLTAMPLGRWMCPNHIEHVVLNQKNMTLSNRCQVFDRFQDTVSQHVVKVDFLNRIHKKHPPNRRVLQSVKRRSLKVPDAIKSQYQFPPPLIAPAAIRDGELICNGIPEESQMHLLNSEHLATQAEQQEWLCSVVALQCSILKHLSAKQMPSHWDSEQTEKADIKPVIVTDSSVTTSLQTADKTPTPSHYPLSCPSGISTQNSLSCSPPHQSPALEDIGCSSCAEKSKKTPCGTANGPVNTEVKANGPHLYSSPTDSTDPRRLPGANTPLPGLSHRQGWPRPLTPPAAGGLQNHTVGIIVKTENATGPSSCPQRSLVPVPSLPPSIPSSCASIENTSTLQRKTVQSQIGPPLTDSRPLGSPPNATRVLTPPQAAGDGILATTANQRFSSPAPSSDGKVSPGTLSIGSALTVPSFPANSTAMVDLTNSLRAFMDVNGEIEINMLDEKLIKFLALQRIHQLFPSRVQPSPGSVGTHQLASGGHHIEVQRKEVQARAVFYPLLGLGGAVNMCYRTLYIGTGADMDVCLTNYGHCNYVSGKHACIFYDENTKHYELLNYSEHGTTVDNVLYSCDFSEKTPPTPPSSIVAKVQSVIRRRRHQKQDEEPSEEAAMMSSQAQGPQRRPCNCKASSSSLIGGSGAGWEGTALLHHGSYIKLGCLQFVFSITEFATKQPKGDASLLQDGVLAEKLSLKPHQGPVLRSNSVP
notes: PHF12, human, full-length; subunit of the SIN3B^FL sample; also called plant homeodomain (PHD) containing protein PHF12; source: High Five insect cells, co-infected with baculoviruses of each subunit; co-purified (Strep-Tactin, GSTrap, Superose 6 SEC)
stoichiometry N [3]: 1
stoichiometry N [2]: 1
stoichiometry N [4]: 1
